In patent US12134663B2, “Cationic peptides for activating Lck” (Interk Peptide Therapeutics Limited, priority 2018, dated 2024):
Entries after “also recorded” stand apart in the source; their conditions may differ. Where no end group is shown, it is not given here. [ ]: non-standard residue; d: D form. 2Adod = 2-amino-dodecanoic acid; Orn = NCCC[C@H](N)C(=O)O

Key:
Lck [1] = target: T1, Lck (Homo sapiens, UniProt P06239); assay: Lck Activity above control (1 µM)
T1 construct: purchased Eurofins Pharma Discovery Services UK Limited
Description: Table printed on a drawing sheet, FIG. 4
(§1) Head of the field: Lck Activity above control (1 µM)
First copying reader's note: The first column holds the sequence together with the SEQ ID NO and peptide code in one cell; activity was measured at 1 µM peptide.
(§2) Where the first naming reader finds the target: head: Lck Activity above control (1 µM)

Lck [2] = target: T1, Lck; assay: Lck Activity above control (1µM)
Description: First copying reader's note: The Peptide column holds the sequence together with the SEQ ID NO and the peptide code; the activity was measured at 1µM peptide, as the head states.

Lck [3] = target: T1, Lck; assay: Lck Activity above control (1 µM); remark: listed apart in the source
Description: Table printed on a drawing sheet, FIG. 5
as §1
First copying reader's note: The Peptide column holds the sequence together with its SEQ ID NO and IK code in brackets; the activity was measured at 1 µM peptide and the % sign stands in the cells.
as §2

Lck [4] = target: T1, Lck; assay: In vitro Lck activation kinase study (Eurofins); format: biochemical; settings: for Lck activation (in words): peptide 1 μM where stated
Description: The ability of polypeptides of the present invention to activate Lck was examined in vitro. Lck is member of the Src family of tyrosine kinases. […] All results in are percentage Lck activity relative to control (100%).
Test polypeptides were assessed at a concentration of 1.0 μM.
The ability of polypeptides of the present invention to activate Src family kinases was examined in vitro. Kinase activation studies utilising peptides were carried out as described in Example 1, and all kinase activity values are shown as percentage relative to control.
The ability of polypeptides comprising both lysine and arginine to activate Lck in vitro was examined. Lck activation studies utilising peptides were carried out as described in Example 1, and all kinase activity values are shown as percentage relative to control.
Target sequence in this assay (P06239 whole entry): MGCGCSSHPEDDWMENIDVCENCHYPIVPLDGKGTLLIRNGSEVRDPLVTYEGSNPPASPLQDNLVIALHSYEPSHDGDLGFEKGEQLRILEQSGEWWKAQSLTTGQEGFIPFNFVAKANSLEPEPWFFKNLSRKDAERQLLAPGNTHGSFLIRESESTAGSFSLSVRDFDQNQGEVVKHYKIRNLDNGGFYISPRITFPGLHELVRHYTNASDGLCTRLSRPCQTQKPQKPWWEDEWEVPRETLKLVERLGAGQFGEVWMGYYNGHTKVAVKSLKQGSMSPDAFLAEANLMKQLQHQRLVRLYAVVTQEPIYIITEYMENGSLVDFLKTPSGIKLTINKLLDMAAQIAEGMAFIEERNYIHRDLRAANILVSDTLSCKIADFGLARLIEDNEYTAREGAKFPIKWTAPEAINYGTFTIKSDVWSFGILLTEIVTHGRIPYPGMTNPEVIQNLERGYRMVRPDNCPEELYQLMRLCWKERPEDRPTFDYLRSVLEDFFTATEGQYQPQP

Fgr = assay: Lck Activity above control (1 µM) | Fgr
Description: Table printed on a drawing sheet, FIG. 2
Head of the field: Lck Activity above control (1 µM) | Fgr
First copying reader's note: Kinase activity above control for each Src family kinase at 1 µM peptide; the cell for IK00800/Fgr is printed as '%' without a digit.
Where the first naming reader finds the target: head: Lck Activity above control (1 µM) | Fgr

RSKAKNPLY-KKKKKKKKK (SEQ ID NO: 44, IK94K90)
Lck Activity above control (1 µM) (Lck [1]): 49%

RRRR (SEQ ID NO: 1, IK00400)
Lck Activity above control (1 µM) (Lck [2]): 0%

RRRRRR (SEQ ID NO: 3, IK00600)
Lck Activity above control (1 µM) (Lck [2]): 0%

RSKAK-RRRR (SEQ ID NO: 29, IK50400) (RSKAKRRRR)
Lck Activity above control (1 µM) (Lck [1]): 0%

RRRRRRRR-HHHHHHHHHH-RSKAKNPLYR (SEQ ID NO: 52, IK81140) (RRRRRRRRHHHHHHHHHHRSKAKNPLYR)
Lck Activity above control (1 µM) (Lck [3]): 567%

HHHHHHHHHH [10His]
Lck activation (in words) (Lck [4]): No increase in Lck activity; also recorded: did not induce any activation of Lck

RSKAKNPLY-RRRRRRRRR-NH2 (SEQ ID NO: 24, IK14800) (RSKAKNPLYRRRRRRRRR-NH2)
Lck Activity above control (1 µM) (Lck [2]): 377%

KKKKKKKKKK [10Lys]
Lck Activity above control (1 µM) | Fgr (Fgr): 0%

RSKAKNPLY-RRRRRRRRR-HHHHHHHHHHHH (SEQ ID NO: 49, IK14820) (RSKAKNPLYRRRRRRRRRHHHHHHHHHHHH)
Lck Activity above control (1 µM) (Lck [3]): 556%

IAGQ-RSKAKNPLY-RRRRRRRRR (SEQ ID NO: 40, IKM14800) (IAGQRSKAKNPLYRRRRRRRRR)
Lck Activity above control (1 µM) (Lck [1]): 454%

RVKVK-RRRRRRRRR-HHHHHHHHHH (RVKVKRRRRRRRRRHHHHHHHHHH) [IK50810]
increase in Lck activity (Lck [4]; peptide 1 μM, relative to control): 778%

RVKVKVVVV-RRRRRRRRR-HHHHHHHHHH (SEQ ID NO: 60, IK50810) (RVKVKVVVVRRRRRRRRRHHHHHHHHHH)
Lck Activity above control (1 µM) (Lck [3]): 778%

RVKVKVVVVR-RRRRRRRR-(2Adod)4-NH2 (SEQ ID NO: 66, IK15804) (RVKVKVVVVRRRRRRRRR-{2Adod-2Adod-2Adod-2Adod-NH2})
Lck Activity above control (1 µM) (Lck [2]): 335%

RRRRRRRRRRRRRR-OH (SEQ ID NO: 11, IK014OH)
Lck Activity above control (1 µM) (Lck [2]): 156%

DDDDDDDDD [IKD9]
Lck activation (in words) (Lck [4]): does not activate Lck
Lck activation (in words) (Lck [4]; listed as DDDDDDDDD): does not increase the activity of Lck

RVKVKVVVV-RRRRRRRRR (SEQ ID NO: 58, IK15800) (RVKVKVVVVRRRRRRRRR)
Lck Activity above control (1 µM) (Lck [3]): 479%

RVKVKVVVV (SEQ ID NO: 55, IK95000)
Lck Activity above control (1 µM) (Lck [3]): 518%

RRRRRRRRRRRR (SEQ ID NO: 8, IK01200)
Lck Activity above control (1 µM) (Lck [2]): 401%

RSKAKNPLYR (SEQ ID NO: 31, IK14000)
Lck Activity above control (1 µM) (Lck [1]): 0%

RSKAKNPLY-RRRRRRRRR-GPLG (SEQ ID NO: 41, IK148MP9) (RSKAKNPLYRRRRRRRRRGPLG)
Lck Activity above control (1 µM) (Lck [1]): 320%

DSEAENPLY-DDDDDDDDD-NH2 (SEQ ID NO: 23, IKDE800) (DSEAENPLYDDDDDDDDD-NH2)
Lck Activity above control (1 µM) (Lck [2]): 0%

RRRRRRRRRR (SEQ ID NO: 7, IK00100)
Lck Activity above control (1 µM) (Lck [2]): 389%

RRRRRRRRRRRRRRRRRRRR (SEQ ID NO: 12, IK00200) (RRRRRRRRRRRRRRRRRRRRR)
Lck Activity above control (1 µM) (Lck [2]): 279%

RSKAK-R (SEQ ID NO: 26, IK50100) (RSKAKR)
Lck Activity above control (1 µM) (Lck [1]): 0%

HHHHH-RRRRRRRRR-HHHHH-RSKAKNPLYR (SEQ ID NO: 51, IK59514) (HHHHHRRRRRRRRRHHHHHRSKAKNPLYR)
Lck Activity above control (1 µM) (Lck [3]): 441%

RRRRR (SEQ ID NO: 2, IK00500)
Lck Activity above control (1 µM) (Lck [2]): 0%

RVKVKVVVV [IK95000]
Lck activation (in words) (Lck [4]): substantial increases in Lck activity

RVKVKVVVV-RRRRRRRR (SEQ ID NO: 57, IK15700) (RVKVKVVVVRRRRRRRR)
Lck Activity above control (1 µM) (Lck [3]): 512%

HHHHHHHHHH (SEQ ID NO: 14, 10His)
Lck Activity above control (1 µM) (Lck [2]): 0%

r s k a k n p l y - r r r r r r r r r (SEQ ID NO: 129, IKD14800) ([dR][dS][dK][dA][dK][dN][dP][dL][dY][dR][dR][dR][dR][dR][dR][dR][dR][dR])
Lck Activity above control (1 µM) (Lck [1]): 490%

RRRRRR [SEQ ID NO: 3]
Lck activation (in words) (Lck [4]): do not activate Lck

RRRRRRRR (SEQ ID NO: 4, IK00800)
Lck Activity above control (1 µM) (Lck [2]): 126%

RSKAK-RRR (SEQ ID NO: 28, IK50300) (RSKAKRRR)
Lck Activity above control (1 µM) (Lck [1]): 0%

DDDDDDDDD-NH2 (SEQ ID NO: 21, IKD9)
Lck Activity above control (1 µM) (Lck [2]): 0%

RSKAKNPLY (SEQ ID NO: 30, IK94000)
Lck Activity above control (1 µM) (Lck [1]): 0%

RVKVKVVVV-RHRHRHRHRHRHRHRH-HH (SEQ ID NO: 61, IK52820) (RVKVKVVVVRHRHRHRHRHRHRHRHHH)
Lck Activity above control (1 µM) (Lck [3]): 408%

RRRRRRRRRRRRRR (SEQ ID NO: 9, IK01400)
Lck Activity above control (1 µM) (Lck [2]): 351%

RVKVKVVVV-RRRRR (SEQ ID NO: 56, IK15400) (RVKVKVVVVRRRRR)
Lck Activity above control (1 µM) (Lck [3]): 382%

rskaknplyrrrrrrrrr ([dR][dS][dK][dA][dK][dN][dP][dL][dY][dR][dR][dR][dR][dR][dR][dR][dR][dR]) [IKD14800]
Lck Activity above control (1 µM) | Fgr (Fgr): 0%

HHHHH-RRRRRRRRR-HHHHH (SEQ ID NO: 17, IK05950) (HHHHHRRRRRRRRRHHHHH)
Lck Activity above control (1 µM) (Lck [2]): 286%

RRRR [SEQ ID NO: 119]
Lck activation (in words) (Lck [4]): do not activate Lck

HHHHH-RSKAKNPLY-RRRRRRRRR-HHHHH (SEQ ID NO: 53, IK51455) (HHHHHRSKAKNPLYRRRRRRRRRHHHHH)
Lck Activity above control (1 µM) (Lck [3]): 685%

RSKAKNPLY-RRRR (SEQ ID NO: 32, IK14300) (RSKAKNPLYRRRR)
Lck Activity above control (1 µM) (Lck [1]): 0%

OrnOrnOrnOrnOrnOrnOrnOrnOrnOrn (SEQ ID NO: 15, 10 Orn)
Lck Activity above control (1 µM) (Lck [2]): 13%

RSKAK [IK5000]
Lck activation (in words) (Lck [4]): no or negligible Lck activation

[Orn][Orn][Orn][Orn][Orn][Orn][Orn][Orn][Orn][Orn] [10 Orn]
Lck activation (in words) (Lck [4]): Negligible Lck activity

KKKKKKKK-HHHHHHHHHH (SEQ ID NO: 18, IK00K10)
Lck Activity above control (1 µM) (Lck [2]): 70%

KEKLKNPLFK-RRRRRRRR-HHHHHHHHHH (SEQ ID NO: 64, IKB2810) (KEKLKNPLFKRRRRRRRRHHHHHHHHHH)
Lck Activity above control (1 µM) (Lck [3]): 379%

Branched < RSKAKNPLY-RRRRRRRRR-HHHHHHHHHH (SEQ ID NO: 48, Br IK14810) (RSKAKNPLYRRRRRRRRRHHHHHHHHHH; also: branched (1)..(28))
Lck Activity above control (1 µM) (Lck [3]): 596%

RSKAKNPLY-RRRR (RSKAKNPLYRRRR) [SEQ ID NO: 32]
Lck activation (in words) (Lck [4]): no Lck activation

RRRRRRRR-HHHHHHHHHH (SEQ ID NO: 19, IK00810) (RRRRRRRRHHHHHHHHHH)
Lck Activity above control (1 µM) (Lck [2]): 259%

RRRRR [SEQ ID NO: 2]
Lck activation (in words) (Lck [4]): do not activate Lck

RSKAKNPLY-RKRKRKRKRK (SEQ ID NO: 54, IK94RK0) (RSKAKNPLYRKRKRKRKRK)
Lck Activity above control (1 µM) (Lck [3]): 456%

Branched < RSKAKNPLY-RRRRRRRRR-HHHHHHHHHH (RSKAKNPLYRRRRRRRRRHHHHHHHHHH; also: branched (1)..(28)) [Br IK14810]
Lck activation (in words) (Lck [4]): Substantially increased Lck activity

RRRRRRRR-RVKVKVVVV-R (SEQ ID NO: 59, IK80150) (RRRRRRRRRVKVKVVVVR)
Lck Activity above control (1 µM) (Lck [3]): 520%

RSKAKNPLYR-RRRRRRRR-(2Adod)4-NH2 (SEQ ID NO: 65, IK14804) (RSKAKNPLYRRRRRRRRR-{2Adod-2Adod-2Adod-2Adod-NH2})
Lck Activity above control (1 µM) (Lck [2]): 468%

RSKAKNPLY-RRRRRRRRR-HHHHH (SEQ ID NO: 46, IK14510) (RSKAKNPLYRRRRRRRRRHHHHH)
Lck Activity above control (1 µM) (Lck [3]): 524%

HHH-RRRRRRRRR-HHH (SEQ ID NO: 16, IK03930) (HHHRRRRRRRRRHHH)
Lck Activity above control (1 µM) (Lck [2]): 386%
